The text below walks through data of paper PMC12333375.

Assay [1] concerns the target AAV8 capsid (adeno-associated virus serotype 8 capsid) (adeno-associated virus serotype 8 (AAV8)) (UniProt Q8JQF8). Put plainly: native MS; orbitrap-based charge detection-mass spectrometry (CD-MS) of nSEC fraction F2 (capsid dimers), infused by CE with sheath liquid interface at about 80 nL/min, 200 mM ammonium acetate, nano ESI, triplicates.
Assay [2] shares this target. Put plainly: SEC-MALS; offline native SEC (AdvanceBio SEC 300 x 7.8 mm, 2.7 um, 500 A) with 20-angle MALS and DAD at 260 and 280 nm; 1:1 (v/v) mixture of empty and full AAV8 capsids; 200 mM ammonium acetate, 1.0 mL/min, 6 replicates; capsid dimer against capsid monomer by peak area.

Regarding “AAV8 capsid (adeno-associated virus serotype 8 capsid) (from UniProt Q8JQF8 1-738) (complex)”, in assay [1], the % empty capsid dimers (CD-MS) worked out at 1%, the % filled capsid dimers (CD-MS) was found to be 3% and the stoichiometry N is 2. For the same substance, in assay [2], the % AAV8 capsid dimer (peak area, absorbance at 260 nm) worked out at 0.9%; the % AAV8 capsid dimer (peak area, absorbance at 280 nm) is 1%; the stoichiometry N is 2.

The stoichiometry N is the number of molecules, sites or subunits per partner or assembly.
